The record followed here is US20240398942A1 (CHIA TAI TIANQING PHARMACEUTICAL GROUP, published 2024).

As a reminder, the Kd is the equilibrium constant for the complex coming apart. In general, koff refers to the first-order rate constant of dissociation. By kon is commonly meant a measure of how fast the partners come together. The EC50 is the concentration needed to bring the measured effect to its halfway point.

The target in assay [1] is T1, recombinant human CD40-his (Acro biosystems, Cat. No. CD0-H5228) (human, UniProt P25942 21-193).
T1 construct: Bought protein; also called human CD40-his protein; not shown: His tag
As to the kind of experiment: BLI (Octet RED 96), antibody captured on AHC sensor, human CD40-his as analyte, 1:1 fit. As to the method:
(§1) After six days of culture in a shake flask, the cell supernatant containing the humanized antibodies huC1H1-V1 to huC1H1-V4 was harvested and the binding affinity of the antibodies to human CD40 was determined on an Octet system (Fortebio, Octet RED 96) according to the following procedures. Briefly, an anti-human IgG Fc capture (AHC) biosensor (from ForteBio) was pre-soaked in a 10 mM glycine solution (pH 1.5) for 3 s, and then soaked in a running buffer (PBST containing 0.5% w/v of BSA) for 3 s. The pre-soaking and soaking procedures were repeated 3 times. Then, the sensor was soaked in the cell supernatant containing the humanized anti-CD40 antibody, chimeric antibody C1H1 dissolved in HBS-EP⁺ buffer at a concentration of 5 μg/mL, or the benchmark dissolved in HBS-EP⁺ buffer at a concentration of 5 μg/mL for 120 s, and then soaked in the running buffer for 5 min. The new baseline was run in the running buffer for 180 s. The sensor was then soaked for 120 s in human CD40-his protein (Acro biosystems, Cat. No. CD0-H5228) 2-fold serially diluted from 40 nM in the running buffer and for 10 min in the running buffer […]. Finally, the sensor was pre-soaked in a 10 mM glycine solution (pH 1.5) for 3 s, and then soaked in the running buffer for 3 s. The pre-soaking and soaking procedures were repeated 3 times. The association and dissociation curves were fitted to a 1:1 Langmuir binding model using ForteBio Data Analysis 8.1.
In general terms: BLI is a label-free optical method that tracks binding on a fibre tip over time.

Assay [2] has as its target T2, cynomolgus monkey CD40-his protein (Acro biosystems, Cat. No. CD0-C52H6) (cynomolgus monkey, UniProt G7PG38 21-193).
T2 construct: Bought protein; not shown: His tag
As to the kind of experiment: SPR (Biacore T200), antibody captured on anti-human IgG chip, CD40-his as analyte, 1:1 fit. An excerpt:
Briefly, a goat anti-human IgG (GE Healthcare, Cat. No. BR100839, human antibody capture kit) was covalently linked to a CM5 chip (GE Healthcare, Cat. No. BR100530, carboxymethylated dextran-coated chip) via the primary amine group using a standard amine coupling kit supplied by Biacore (GE Healthcare, Pittsburgh, PA, USA). Unreacted portions on the biosensor surface were blocked with ethanolamine. Then, the anti-CD40 antibody of the present application and two benchmark antibodies (BM1 (dacetuzumab, Genentech Inc., also referred to CD40-BM1, prepared in-house; the heavy and light chain amino acid sequences are set forth in SEQ ID NOs: 40 and 41, respectively) and BM2 (selicrelumab, Abgenix Inc., also referred to CD40-BM2, prepared in-house; the heavy and light chain amino acid sequences are set forth in SEQ ID NOS: 42 and 43, respectively)) at a concentration of 66.67 nM were directed through the chip at a flow rate of 10 μL/min. Then, serially diluted recombinant human CD40-his (Acro biosystems, Cat. No. CD0-H5228, serially 2-fold diluted from 80 nM in HBS-EP⁺ buffer (supplied by Biacore)) or cynomolgus monkey CD40-his protein (Acro biosystems, Cat. No. CD0-C52H6, serially 2-fold diluted from 80 nM in HBS-EP⁺ buffer (supplied by Biacore)) was directed through the chip at a flow rate of 30 μL/min. The antigen-antibody binding kinetics was tracked for 2 min and the dissociation kinetics was tracked for 10 min. The association and dissociation curves were fitted to a 1:1 Langmuir binding model using BIAcore evaluation software. KD, Kₐ, and Kd values were determined.
A general note: Surface plasmon resonance follows binding to a sensor surface in real time, without labels.

Assay [3] has as its target T1, recombinant human CD40-his (Acro …). As to the kind of experiment: BLI (Octet RED 96), antibody captured from cell supernatant on AHC sensor, human CD40-his as analyte, 1:1 fit. As to the method: as §1
Assay [4] addresses T3, human CD40-Fc protein (human, biotinylated (sites not given) in the capture ELISA and the benchmark blocking ELISA; not biotinylated in the ligand blocking ELISA).
T3 construct: also called biotinylated human CD40-Fc
As to the kind of experiment: capture ELISA: antibody captured on coated goat anti-human IgG F(ab')2, biotinylated human CD40-Fc 1.15 nM, streptavidin-HRP, OD(450-630). The procedure:
(§2) The plate was washed once with a washing buffer (PBS+0.05% v/v of Tween-20, PBST) and then blocked with 200 μL/well blocking buffer (PBST containing 5% w/v of skim milk) for 2 h at 37° C. The plate was washed 4 times, and the anti-CD40 antibody of the present application, BM1, BM2, and a negative control hIgG (human immunoglobulin for intravenous injection (pH 4), Hualan Biological Engineering Inc.) serially 5-fold diluted from 66.7 nM in a PBST containing 2.5% w/v of skim milk was added at 100 μL per well. The plate was incubated for 40 min at 37° C. and washed 4 times. A biotinylated human CD40-Fc protein (amino acid residues 21-193 of SEQ ID NO: 30 linked to the N terminus of amino acid residues 99-330 of SEQ ID NO: 28, dissolved in PBST containing 2.5% w/v of skim milk at a concentration of 1.15 nM) was added at 100 μL/well to a 96-well plate coated with the anti-CD40 antibody. The plate was incubated at 37° C. for 40 min and washed 4 times. An HRP-labeled streptavidin (diluted at 1:10000 in PBST, Jackson Immuno Research, Cat. No. 016-030-084) was added at 100 μL/well, and the plate was incubated at 37° C. for another 40 min. After the last wash, 100 μL/well of ELISA substrate TMB (Innoreagents, Cat. No. TMB-S-002) was added and the plate was incubated at room temperature. After 3-10 min, the reaction was stopped by adding 1 M H₂SO₄ at 50 µL/well, and the absorbance of each well was read on a microplate reader using the dual wavelength mode (TMB detection wavelength: 450 nm, reference wavelength: 630 nm). Curves of OD(450-630) values vs. antibody concentration were plotted. Data were analyzed using Graphpad Prism software, and EC₅₀ values were obtained.

The target in assay [5] is T3, human CD40-Fc protein. Described as above. The procedure: as §2
The source holds these as a separate data set.

Substitutions are numbered along the chain they refer to. Where two headings read alike, the source gives them in different places.

T3 sequence (chain, as listed by the source limits assumed): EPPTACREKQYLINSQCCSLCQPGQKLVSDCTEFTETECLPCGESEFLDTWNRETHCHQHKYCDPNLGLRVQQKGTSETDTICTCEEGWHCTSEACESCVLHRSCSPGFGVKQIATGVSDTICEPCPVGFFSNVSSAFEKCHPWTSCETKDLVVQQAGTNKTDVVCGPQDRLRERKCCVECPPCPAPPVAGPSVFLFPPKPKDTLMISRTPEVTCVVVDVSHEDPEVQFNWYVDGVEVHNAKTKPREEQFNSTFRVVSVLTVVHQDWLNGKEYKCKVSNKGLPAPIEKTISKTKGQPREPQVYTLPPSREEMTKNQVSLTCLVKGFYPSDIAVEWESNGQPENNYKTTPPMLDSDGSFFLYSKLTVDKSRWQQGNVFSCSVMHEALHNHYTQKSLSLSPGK
T1 sequence (P25942 21-193 limits assumed): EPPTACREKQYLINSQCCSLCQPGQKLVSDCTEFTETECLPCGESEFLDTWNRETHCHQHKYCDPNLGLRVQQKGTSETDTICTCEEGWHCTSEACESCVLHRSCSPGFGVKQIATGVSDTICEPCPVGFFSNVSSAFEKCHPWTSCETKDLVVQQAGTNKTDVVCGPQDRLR

B1: chimeric antibody C1H1 (antibody, human IgG1, kappa, V domains shown)
VH: EVKLVESGGGLVKPGASLKLSCAASGFTFSNYGISWVRQTSDKRLEWVASISSGGDNTYYPDNVKGRFTISRENAKNTLYLQMSSLKSEDTALYYCARAGEKAMDYWGQGTSVTVSS
VL: DIVLTQSPVTLSVTPGDSVSLSCRASQTINNNLHWYQQKSHESPRLLIKYASQSISGIPSRFSGSGSGTDFTLSINSVETEDFGIYFCQQFSSWPLTFGAGTKLELKR
notes: also called Chimeric C1H1
For the molecule B1, in assay [1], the Kd turned out to be 0.633 nM, the koff was determined as 0.000929 s⁻¹ and the kon turned out to be 1.47e+06 M⁻¹ s⁻¹. In assay [2], the dissociation constant (Kd) is 1.06 nM, the koff was 0.00148 s⁻¹ and the kon worked out at 1.39e+06 M⁻¹ s⁻¹.

B2: humanized antibody huC1H1-V1 (antibody, human IgG2, kappa, V domains shown)
VH: EVQLVESGGGLVKPGGSLRLSCAASGFTFSNYGISWVRQAPGKGLEWVASISSGGDNTYYPDNVKGRFTISRDNAKNSLYLQMNSLRAEDTAVYYCARAGEKAMDYWGQGTLVTVSS
VL: EIVLTQSPATLSLSPGERATLSCRASQTINNNLHWYQQKPGQAPRLLIKYASQSISGIPARFSGSGSGTDFTLTISSLEPEDFAVYFCQQFSSWPLTFGGGTKVEIKR
notes: Human IgG2 / kappa
For B2, in assay [3], the Kd is 0.904 nM, the koff amounted to 0.00128 s⁻¹ and the kon amounted to 1.41e+06 M⁻¹ s⁻¹.

B3: humanized antibody huC1H1-V2 (antibody, human IgG2, kappa, V domains shown)
VH: B2 VH with A49S
VL: B2 VL
notes: Human IgG2 / kappa
As to B3, in assay [3], the equilibrium dissociation constant (Kd) amounted to 0.596 nM, the koff came to 0.000981 s⁻¹ and the kon was found to be 1.65e+06 M⁻¹ s⁻¹.

B4: BM2 (selicrelumab) (antibody, human IgG2, kappa, V domains shown)
VH: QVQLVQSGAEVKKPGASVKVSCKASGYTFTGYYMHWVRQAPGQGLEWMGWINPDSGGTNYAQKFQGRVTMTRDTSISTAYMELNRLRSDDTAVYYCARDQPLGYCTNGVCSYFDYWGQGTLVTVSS
VL: DIQMTQSPSSVSASVGDRVTITCRASQGIYSWLAWYQQKPGKAPNLLIYTASTLQSGVPSRFSGSGSGTDFTLTISSLQPEDFATYYCQQANIFPLTFGGGTKVEIKR
notes: Benchmark antibody, prepared in-house; also called CD40-BM2; benchmark
Turning to B4, in assay [1], the dissociation constant Kd was determined as 1.12 nM, the koff is 0.000979 s⁻¹ and the kon stood at 874000 M⁻¹ s⁻¹. The midpoint of the response in assay [4], the EC50, lay at 1.36 nM. Further, it took 0.909 nM to reach a half-maximal effect in assay [5] (EC50).

B5: BM1 (dacetuzumab) (antibody, human IgG1, kappa, V domains shown)
VH: EVQLVESGGGLVQPGGSLRLSCAASGYSFTGYYIHWVRQAPGKGLEWVARVIPNAGGTSYNQKFKGRFTLSVDNSKNTAYLQMNSLRAEDTAVYYCAREGIYWWGQGTLVTVSS
VL: DIQMTQSPSSLSASVGDRVTITCRSSQSLVHSNGNTFLHWYQQKPGKAPKLLIYTVSNRFSGVPSRFSGSGSGTDFTLTISSLQPEDFATYFCSQTTHVPWTFGQGTKVEIKR
notes: Benchmark antibody, prepared in-house; also called CD40-BM1; benchmark
For the molecule B5, in assay [2], binding was put at a Kd of 9.89 nM, the koff stood at 0.00616 s⁻¹ and the kon came out at 623000 M⁻¹ s⁻¹. For the same molecule, a half-maximal response in assay [4] (EC50) required 0.628 nM. For the same molecule, a half-maximal response in assay [5] (EC50) required 0.463 nM.
